Assay results taken from paper PMC12586598 (2025).

Key:
Experiment in all cases: SPR
[1] = biological target: long-acting C5a-blocking cyclic peptide drug Cp1 (head-tail cyclization of the linear peptide K1)
[2] = biological target: K4
[3] = biological target: linear peptide K1
[4] = biological target: K3
[5] = biological target: K2

Binder	Kd [1]	Kd [2]	koff [2]	Kd [3]	koff [3]	Kd [4]	koff [4]	Kd [5]	koff [5]	koff [1]
mouse C5a protein (ligand) NLHLLRQKIEEQAAKYKHSVPKKCCYDGARVNFYETCEERVARVTIGPLCIRAFNECCTIANKIRKESPHKPVQLGR	5.63 µM	2.38 µM	0.0299 s⁻¹	2.85 µM	0.00586 s⁻¹	7.12 µM	0.392 s⁻¹	53.6 µM	0.00405 s⁻¹	
mouse C5a-desArg (ligand) NLHLLRQKIEEQAAKYKHSVPKKCCYDGARVNFYETCEERVARVTIGPLCIRAFNECCTIANKIRKESPHKPVQLGR	3.58 µM									
mouse C5 (natural protein) chain 1: QEQTYVISAPKILRVGSSENVVIQVHGYTEAFDATLSLKSYPDKKVTFSSGYVNLSPENKFQNAALLTLQPNQVPREESPVSHVYLEVVSKHFSKSKKIPITYNNGILFIHTDKPVYTPDQSVKIRVYSLGDDLKPAKRETVLTFIDPEGSEVDIVEENDYTGIISFPDFKIPSNPKYGVWTIKANYKKDFTTTGTAYFEIKEYVLPRFSVSIELERTFIGYKNFKNFEITVKARYFYNKVVPDAEVYAFFGLREDIKDEEKQMMHKATQAAKLVDGVAQISFDSETAVKELSYNSLEDLNNKYLYIAVTVTESSGGFSEEAEIPGVKYVLSPYTLNLVATPLFVKPGIPFSIKAQVKDSLEQAVGGVPVTLMAQTVDVNQETSDLETKRSITHDTDGVAVFVLNLPSNVTVLKFEIRTDDPELPEENQASKEYEAVAYSSLSQSYIYIAWTENYKPMLVGEYLNIMVTPKSPYIDKITHYNYLILSKGKIVQYGTREKLFSSTYQNINIPVTQNMVPSARLLVYYIVTGEQTAELVADAVWINIEEKCGNQLQVHLSPDEYVYSPGQTVSLDMVTEADSWVALSAVDRAVYKVQGNAKRAMQRVFQALDEKSDLGCGAGGGHDNADVFHLAGLTFLTNANADDSHYRDDSCKEIL chain 2: NLHLLRQKIEEQAAKYKHSVPKKCCYDGARVNFYETCEERVARVTIGPLCIRAFNECCTIANKIRKESPHKPVQLGRIHIKTLLPVMKADIRSYFPESWLWEIHRVPKRKQLQVTLPDSLTTWEIQGIGISDNGICVADTLKAKVFKEVFLEMNIPYSVVRGEQIQLKGTVYNYMTSGTKFCVKMSAVEGICTSGSSAASLHTSRPSRCVFQRIEGSSSHLVTFTLLPLEIGLHSINFSLETSFGKDILVKTLRVVPEGVKRESYAGVILDPKGIRGIVNRRKEFPYRIPLDLVPKTKVERILSVKGLLVGEFLSTVLSKEGINILTHLPKGSAEAELMSIAPVFYVFHYLEAGNHWNIFYPDTLSKRQSLEKKIKQGVVSVMSYRNADYSYSMWKGASASTWLTAFALRVLGQVAKYVKQDENSICNSLLWLVEKCQLENGSFKENSQYLPIKLQGTLPAEAQEKTLYLTAFSVIGIRKAVDICPTMKIHTALDKADSFLLENTLPSKSTFTLAIVAYALSLGDRTHPRFRLIVSALRKEAFVKGDPPIYRYWRDTLKRPDSSVPSSGTAGMVETTAYALLASLKLKDMNYANPIIKWLSEEQRYGGGFYSTQDTINAIEGLTEYSLLLKQIHLDMDINVAYKHEGDFHKYKVTEKHFLGRPVEVSLNDDLVVSTGYSSGLATVYVKTVVHKISVSEEFCSFYLKIDTQDIEASSHFRLSDSGFKRIIACASYKPSKEESTSGSSHAVMDISLPTGIGANEEDLRALVEGVDQLLTDYQIKDGHVILQLNSIPSRDFLCVRFRIFELFQVGFLNPATFTVYEYHRPDKQCTMIYSISDTRLQKVCEGAACTCVEADCAQLQAEVDLAISADSRKEKACKPETAYAYKVRITSATEENVFVKYTATLLVTYKTGEAADENSEVTFIKKMSCTNANLVKGKQYLIMGKEVLQIKHNFSFKYIYPLDSSTWIEYWPTDTTCPSCQAFVENLNNFAEDLFLNSCE	0.712 µM									0.0745 s⁻¹
human C5a protein (ligand) TLQKKIEEIAAKYKHSVVKKCCYDGACVNNDETCEQRAARISLGPRCIKAFTECCVVASQLRANISHKDMQLGR	7.41 µM									0.395 s⁻¹
